The record followed here is the Human Domainome abundance scans (Beltran et al. 2025).

± gives the uncertainty stated by the source.

B1: Serine/threonine-protein kinase LATS1, residues 98 to 141; numbered along this chain, O95835 (parent)
chain: TSEVNPQMLQDLQAAGFDEDMVIQALQKTNNRSIEAAIEFISKM

Variants of B1 are the subject of this series. Nature of the series: abundance fitness (aPCA) (normalised: wild type 0, dead -1); higher = more abundant; growth selection in yeast, the domain comes from the species named. Conditions: Homo sapiens.
Regarding TFEVNPQMLQDLQAAGFDEDMVIQALQKTNNRSIEAAIEFISKM, the abundance fitness was -0.108 ± 0.085.

Consider TAEVNPQMLQDLQAAGFDEDMVIQALQKTNNRSIEAAIEFISKM, for which the abundance fitness is -0.07 ± 0.04.

In the case of TKEVNPQMLQDLQAAGFDEDMVIQALQKTNNRSIEAAIEFISKM, the abundance fitness was determined as 0.021 ± 0.059.

For the variant TYEVNPQMLQDLQAAGFDEDMVIQALQKTNNRSIEAAIEFISKM, the abundance fitness was -0.231 ± 0.086.

Turning to TDEVNPQMLQDLQAAGFDEDMVIQALQKTNNRSIEAAIEFISKM, the abundance fitness was -0.082 ± 0.058.

TLEVNPQMLQDLQAAGFDEDMVIQALQKTNNRSIEAAIEFISKM: the abundance fitness was -0.219 ± 0.035.

As to TNEVNPQMLQDLQAAGFDEDMVIQALQKTNNRSIEAAIEFISKM, the abundance fitness was -0.057 ± 0.052.

Consider TCEVNPQMLQDLQAAGFDEDMVIQALQKTNNRSIEAAIEFISKM, for which the abundance fitness is -0.154 ± 0.093.

As for TWEVNPQMLQDLQAAGFDEDMVIQALQKTNNRSIEAAIEFISKM, the abundance fitness is -0.174 ± 0.044.

Regarding TIEVNPQMLQDLQAAGFDEDMVIQALQKTNNRSIEAAIEFISKM, the abundance fitness was -0.035 ± 0.12.

As to TEEVNPQMLQDLQAAGFDEDMVIQALQKTNNRSIEAAIEFISKM, the abundance fitness was -0.014 ± 0.06.

Take TREVNPQMLQDLQAAGFDEDMVIQALQKTNNRSIEAAIEFISKM: the abundance fitness was -0.054 ± 0.034.

Consider TQEVNPQMLQDLQAAGFDEDMVIQALQKTNNRSIEAAIEFISKM, for which the abundance fitness is -0.035 ± 0.054.

Consider TMEVNPQMLQDLQAAGFDEDMVIQALQKTNNRSIEAAIEFISKM, for which the abundance fitness was -0.143 ± 0.043.

For TVEVNPQMLQDLQAAGFDEDMVIQALQKTNNRSIEAAIEFISKM, the abundance fitness was -0.311 ± 0.039.

Regarding TGEVNPQMLQDLQAAGFDEDMVIQALQKTNNRSIEAAIEFISKM, the abundance fitness is 0.029 ± 0.034.

In the case of TSETNPQMLQDLQAAGFDEDMVIQALQKTNNRSIEAAIEFISKM, the abundance fitness was -0.218 ± 0.053.

For TSEDNPQMLQDLQAAGFDEDMVIQALQKTNNRSIEAAIEFISKM, the abundance fitness is -0.344 ± 0.049.

With TSEPNPQMLQDLQAAGFDEDMVIQALQKTNNRSIEAAIEFISKM, the abundance fitness is -0.057 ± 0.054.

In the case of TSERNPQMLQDLQAAGFDEDMVIQALQKTNNRSIEAAIEFISKM, the abundance fitness is -0.515 ± 0.036.

In the case of TSEYNPQMLQDLQAAGFDEDMVIQALQKTNNRSIEAAIEFISKM, the abundance fitness is -0.272 ± 0.085.

With TSEMNPQMLQDLQAAGFDEDMVIQALQKTNNRSIEAAIEFISKM, the abundance fitness is -0.453 ± 0.054.

In the case of TSEGNPQMLQDLQAAGFDEDMVIQALQKTNNRSIEAAIEFISKM, the abundance fitness was -0.388 ± 0.035.

On to TSELNPQMLQDLQAAGFDEDMVIQALQKTNNRSIEAAIEFISKM, for which the abundance fitness was -0.367 ± 0.038.

On to TSESNPQMLQDLQAAGFDEDMVIQALQKTNNRSIEAAIEFISKM, for which the abundance fitness is -0.444 ± 0.038.

Turning to TSEHNPQMLQDLQAAGFDEDMVIQALQKTNNRSIEAAIEFISKM, the abundance fitness was -0.262 ± 0.055.

As to TSEFNPQMLQDLQAAGFDEDMVIQALQKTNNRSIEAAIEFISKM, the abundance fitness is -0.357 ± 0.066.

For the variant TSEENPQMLQDLQAAGFDEDMVIQALQKTNNRSIEAAIEFISKM, the abundance fitness is -0.402 ± 0.045.

For the variant TSECNPQMLQDLQAAGFDEDMVIQALQKTNNRSIEAAIEFISKM, the abundance fitness is -0.277 ± 0.044.

On to TSEINPQMLQDLQAAGFDEDMVIQALQKTNNRSIEAAIEFISKM, for which the abundance fitness is -0.15 ± 0.12.

Take TSEWNPQMLQDLQAAGFDEDMVIQALQKTNNRSIEAAIEFISKM: the abundance fitness was -0.561 ± 0.067.

TSENNPQMLQDLQAAGFDEDMVIQALQKTNNRSIEAAIEFISKM: the abundance fitness is -0.204 ± 0.067.

TSDVNPQMLQDLQAAGFDEDMVIQALQKTNNRSIEAAIEFISKM: the abundance fitness is -0.099 ± 0.069.

For TSVVNPQMLQDLQAAGFDEDMVIQALQKTNNRSIEAAIEFISKM, the abundance fitness is -0.802 ± 0.054.

For the variant TSYVNPQMLQDLQAAGFDEDMVIQALQKTNNRSIEAAIEFISKM, the abundance fitness is -0.2 ± 0.14.

Regarding TSCVNPQMLQDLQAAGFDEDMVIQALQKTNNRSIEAAIEFISKM, the abundance fitness was -0.855 ± 0.073.

Take TSFVNPQMLQDLQAAGFDEDMVIQALQKTNNRSIEAAIEFISKM: the abundance fitness is -0.18 ± 0.095.

Consider TSGVNPQMLQDLQAAGFDEDMVIQALQKTNNRSIEAAIEFISKM, for which the abundance fitness was -0.117 ± 0.034.

Consider TSLVNPQMLQDLQAAGFDEDMVIQALQKTNNRSIEAAIEFISKM, for which the abundance fitness is -0.326 ± 0.046.

Take TSPVNPQMLQDLQAAGFDEDMVIQALQKTNNRSIEAAIEFISKM: the abundance fitness is -0.079 ± 0.049.

In the case of TSWVNPQMLQDLQAAGFDEDMVIQALQKTNNRSIEAAIEFISKM, the abundance fitness was -0.116 ± 0.05.

As for TSNVNPQMLQDLQAAGFDEDMVIQALQKTNNRSIEAAIEFISKM, the abundance fitness was -0.119 ± 0.14.

In the case of TSIVNPQMLQDLQAAGFDEDMVIQALQKTNNRSIEAAIEFISKM, the abundance fitness is -0.529 ± 0.065.

Turning to TSAVNPQMLQDLQAAGFDEDMVIQALQKTNNRSIEAAIEFISKM, the abundance fitness was -0.223 ± 0.041.

For TSKVNPQMLQDLQAAGFDEDMVIQALQKTNNRSIEAAIEFISKM, the abundance fitness is -0.042 ± 0.05.

As to TSQVNPQMLQDLQAAGFDEDMVIQALQKTNNRSIEAAIEFISKM, the abundance fitness is -0.138 ± 0.048.

For the variant TSSVNPQMLQDLQAAGFDEDMVIQALQKTNNRSIEAAIEFISKM, the abundance fitness is -0.332 ± 0.041.

With TSHVNPQMLQDLQAAGFDEDMVIQALQKTNNRSIEAAIEFISKM, the abundance fitness is -0.148 ± 0.071.

Regarding TSRVNPQMLQDLQAAGFDEDMVIQALQKTNNRSIEAAIEFISKM, the abundance fitness is -0.202 ± 0.035.

Take TSTVNPQMLQDLQAAGFDEDMVIQALQKTNNRSIEAAIEFISKM: the abundance fitness was -0.126 ± 0.054.
